The source of these data is the supplement of paper PMC9170038.

The series deals with MS2 coat protein. Description: apparent KD of MS2 coat protein; designed switch direction (-1 OFF switch, 1 ON switch): -1; higher = weaker reporter binding. The essentials: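 Designed RNA switches with common flanks were transcribed on Illumina chips by stalled E. coli RNA polymerase and titrated with SNAP-549-labelled MS2 coat protein, from 0.7 or 1.5 nM doubling to 3 µM, in Tris-HCl pH 7.5 buffer with KCl, MgCl2, BSA, DTT, tRNA and Tween-20. Steps lasted 0.8–1.5 h (lowest) to 10–20 min (highest). Titrations ran without input, with 200 uM small-molecule ligand, or with an oligonucleotide input. Normalised cluster fluorescence was curve-fitted, and apparent KD is the per-design median over clusters.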

[1] abbreviates: input ligand: microRNA oligo, concentration not stated.
Where [2] appears, read: Eterna round: R95, input ligand: FMN 200 uM.
Setting [3] is: Eterna round: R95, input ligand: microRNA oligo, concentration not stated.
The mark [4] stands for this setting: Eterna round: R95, input ligand: none.

For “UUAAUGAUUGUGAGGAUAUUUGAUAGAUAGAUAUUAGAGAAGGUACAUGAGGAUCACCCAUGUGUGAUUAGAGA [Brourd's EX4 #70] (Eterna round: R97, puzzle: Brourd's mod of Exclusion 4)”, the “apparent KD of MS2 coat protein” value (input ligand: FMN 200 uM) turned out to be 164 nM and the “apparent KD of MS2 coat protein” value (input ligand: none) was found to be 75.4 nM.

With “AAGUGACAUGAGGAUCACCCAUGUCAGGAUAUGCGCCGCUUACGCCUAAGUGUAGGGAGCAGAAGGGACAUAGA [EX1 B.2] (Eterna round: R97, puzzle: Exclusion 1)”, the “apparent KD of MS2 coat protein” value turned out to be 30.5 nM (input ligand: FMN 200 uM) and 25.7 nM (input ligand: none).

As for “CCUUAGUCACAGGAUAUGCUCAUCUAAUGAUGAGCAGAAGGGUGAACAUGAGGAUCACCCAUGUUUAUCAAGGG [Omei Ex6 E3] (Eterna round: R97, puzzle: Exclusion 6)”, the “apparent KD of MS2 coat protein” value by setting is: (input ligand: FMN 200 uM) 300 nM; (input ligand: none) 274 nM.

In the case of “GAAAAACAUGAGGAUCACCCAUGUAAGGAUAUGCUGAAAAACACGGAAAAAACGUGCAGCAGAAGGUACAAAAG [Mat - Exclusion 1 - Eli mod - D91] (Eterna round: R96, puzzle: Exclusion 1)”, the “apparent KD of MS2 coat protein” value reads like this: (input ligand: FMN 200 uM) 107 nM; under setting [1], 44.8 nM; (input ligand: none) 71.1 nM.

On to “GGGCGUUAAGGAUAUGAUUGAAGGAACAUGAGGAUCACCCAUGUUCGGUGCCUAAUGUUCUCAGAAGGUGAUAGCU [Eternabot (L1) Solution 50] (Eterna round: R97, puzzle: Exclusion 5)”, for which the “apparent KD of MS2 coat protein” value stood at 186 nM (input ligand: FMN 200 uM) and 175 nM (input ligand: none).

On to “AGUAACUAUCACGAAAGUGAUAGUUACAAAACAAGUGGAACAUGAGGAUCACCCAUGUCCUCAUUUGCUCGUCUUAU [Sensor 3 - 4] (puzzle: Sensor v3, turn-off variant 2)”, for which the “apparent KD of MS2 coat protein” value reads like this: under setting [2], 107 nM; under setting [3], 238 nM; under setting [4], 166 nM.

As to “GACCGGGCAGGAUAUACAAAACCUCGGUGUAUUUUGGACCGACAUGAGGAUCACCCAUGUAGAAGGGCCUAAGG [Eternabot (Original) Solution 4] (Eterna round: R97, puzzle: Exclusion 2)”, the “apparent KD of MS2 coat protein” value was 34.2 nM (input ligand: FMN 200 uM) and 23.6 nM (input ligand: none).

For “UAUGGUAAAGUCAGGAUAUACGUACGUCGUUCUAGGUAGAAGGGACAUGAGGAUCACCCAUGUAUGAUAGUAAA [Ex4 #35] (Eterna round: R97, puzzle: Brourd's mod of Exclusion 4)”, the “apparent KD of MS2 coat protein” value is 36.1 nM (input ligand: FMN 200 uM) and 41.6 nM (input ligand: none).

For “AAUAAUCAUGUAGGAUAUGCGUGGCAAAGCUAUGCAGAAGGACAUGAGGAUCACCCAUGUUCUAGCGUCUGCGUACAGAUGCUA [Mat - Exclusion NG 1 - Mod of JL - D80] (Eterna round: R96, puzzle: Exclusion NG 1)”, the “apparent KD of MS2 coat protein” value came to 246 nM (input ligand: FMN 200 uM), 29.1 nM under setting [1] and 37.2 nM (input ligand: none).

Take “GCAGCGUAUGUAGGAUAUCGGUCAGUUUCUGAUCGAGAAGGACAUGAGGAUCACCCAUGUGCGGUCAUGCGUGAGCAUGGCUGC [JL ENG1 3.74] (Eterna round: R96, puzzle: Exclusion NG 1)”: the “apparent KD of MS2 coat protein” value runs as follows: (input ligand: FMN 200 uM) 268 nM; under setting [1], 31.3 nM; (input ligand: none) 41.2 nM.

For the sequence “GCACGAAGUGUAGGAUAUCUGUGCGAUUAGCUCAGAGAAGGACACAUGAGGAUCACCCAUGUGUUCCAAUCACAAAAUACGUGC [Eli exng1 - 060] (Eterna round: R96, puzzle: Exclusion NG 1)”, the “apparent KD of MS2 coat protein” value runs as follows: (input ligand: FMN 200 uM) 11.7 nM; under setting [1], 11 nM; (input ligand: none) 11.9 nM.

Regarding “AGAUGGCGAGGAUAUACAUGAGGAUCACCCAUGUGAGAAGAUAAAGUGAGGAAGAAAAGUAGAAGGCGCUGUCA [Mat - Exclusion 3 - Mod of Salish D23] (puzzle: Exclusion 3)”, the “apparent KD of MS2 coat protein” value turned out to be 68.3 nM under setting [2], 44.9 nM under setting [3] and 45.1 nM under setting [4].

Regarding “CUGAACCCGGUAGGAUAUAUUGUGGGCAAGCGUGGAACGACAUGAGGAUCACCCAUGUAAUUUAGGUAGAAGGGCCGAGAGAUU [Excl-NG2-LRO12] (Eterna round: R96, puzzle: Exclusion NG 2)”, the “apparent KD of MS2 coat protein” value amounted to 32.5 nM (input ligand: FMN 200 uM), 41.5 nM under setting [1] and 41.5 nM (input ligand: none).

For the sequence “AACAUGGUAAAGGAUAUUGUCGCAGAAUGCGAUCAAGAAGGUUACACAUGAGGAUCACCCAUGUGGAAUCCAUC [Eternabot (Original) Solution 24] (Eterna round: R97, puzzle: Exclusion 6)”, the “apparent KD of MS2 coat protein” value runs as follows: (input ligand: FMN 200 uM) 63.2 nM; (input ligand: none) 17.2 nM.

Consider “GUCGUGUUAGGAUAUGGCGGCGGCGGCGAAAGUUGUUGUUGUUAGAAGGAACAUGAGGAUCACCCAUGUAUGAC [-26 -25.5 kcal, A 24%] (Eterna round: R97, puzzle: Exclusion 4)”, for which the “apparent KD of MS2 coat protein” value amounted to 104 nM (input ligand: FMN 200 uM) and 35.3 nM (input ligand: none).

As to “AGUCAGGCGGUAGGAUAUCCAUAUCGAGUGACCCUUUCAUAACAUGAGGAUCACCCAUGUCGGUGGGAGAAGGGCCGUACGGCA [Mat - Exclusion NG 2 - Mod of JL - D68] (Eterna round: R96, puzzle: Exclusion NG 2)”, the “apparent KD of MS2 coat protein” value reads like this: (input ligand: FMN 200 uM) 116 nM; under setting [1], 52.3 nM; (input ligand: none) 89.3 nM.

As to “CUGAGCUGAGGAUAUACAUGAGGAUCACCCAUGUUUUGUAGCUAGUGAAGAAGUAGAUGUAGAAGGCAGUUCGG [Mod of JL 25 - Jieux - Exclusion 3] (Eterna round: R97, puzzle: Exclusion 3)”, the “apparent KD of MS2 coat protein” value came to 167 nM (input ligand: FMN 200 uM) and 72.8 nM (input ligand: none).

For “AUAAAGUGAGGAUAUCCAAUAUAUGACAUGAGGAUCACCCAUGUUUCCACUCGUACCUCCGGAGAAGGCACAAUUU [Ex5 #63] (Eterna round: R97, puzzle: Exclusion 5)”, the “apparent KD of MS2 coat protein” value is, setting by setting: (input ligand: FMN 200 uM) 24.5 nM; (input ligand: none) 29.2 nM.

“AGUACUAUGCGAGCUGACUUGCGUAGUGCAGCAAGUGAAACAUGAGGAUCACCCAUGUCCUCAUUUGCUCGUCUUAU [Mat - Sensor v3 - Turn-off var 2 - D1] (Eterna round: R96, puzzle: Sensor v3, turn-off variant 2)”: the “apparent KD of MS2 coat protein” value is, setting by setting: (input ligand: FMN 200 uM) 31.1 nM; under setting [1], 662 nM; (input ligand: none) 34.1 nM.

As to “GGAUCGAGUGUGAGGAUAUGCUGGUCCUUGGAUCAGCAGAAGGCACAUGAGGAUCACCCAUGUGAUACCGAUCC [Eli bmx4 4.67] (Eterna round: R97, puzzle: Brourd's mod of Exclusion 4)”, the “apparent KD of MS2 coat protein” value by setting is: (input ligand: FMN 200 uM) 736 nM; (input ligand: none) 71 nM.

As to “GAGUUAACGUGAGGAAUAUACAUGAGGAUCACCCAUGUUAACAAAUUUAUUGCUCGUCUUAUAACAACAAUUAACUC [Alarm 6 - Jieux - Sensor, turn-off variant 1] (Eterna round: R97, puzzle: Sensor, turn-off variant 1)”, the “apparent KD of MS2 coat protein” value reads like this: (input ligand: FMN 200 uM) 23 nM; (input ligand: none) 27.7 nM.

On to “AGUUCACAUGAGGAUCACCCAUGUGAGGAUAUGGAUUCGCUGGCCGUAGCCAGUGGAUCCAGAAGGCGCAUGAU [JL-ex1-4.14] (Eterna round: R97, puzzle: Exclusion 1)”, for which the “apparent KD of MS2 coat protein” value reads like this: (input ligand: FMN 200 uM) 36.9 nM; (input ligand: none) 32 nM.

“AACCCUGAUGACAAAUUACAUGAGGAUCACCCAUGUGCCUCACAGGAUAUCCCAGCACGUCGCUAGGAGAAGGGUGACGCGCCA [Tienen] (Eterna round: R96, puzzle: Exclusion NG 3)”: the “apparent KD of MS2 coat protein” value (input ligand: FMN 200 uM) came out at 37.5 nM, the “apparent KD of MS2 coat protein” value under setting [1] amounted to 25.1 nM and the “apparent KD of MS2 coat protein” value (input ligand: none) is 30 nM.

Turning to “GGGUGACAGUUAGGAUAUCUUAGCACGCCGUAGAGAGAAGGGACAUGAGGAUCACCCAUGUUGUAGUGCCUCCAGCACUGCUAG [Esrasoce] (Eterna round: R96, puzzle: Exclusion NG 1)”, the “apparent KD of MS2 coat protein” value is 105 nM (input ligand: FMN 200 uM), 34 nM under setting [1] and 66.4 nM (input ligand: none).

Regarding “AGCCUGUAAGUAGGAUAUAUGAUCAGGAAUGAAAUAGAAGGGCUUAGUGGACAUGAGGAUCACCCAUGUCAAUGGGUUCAUGCA [Edria] (Eterna round: R96, puzzle: Exclusion NG 1)”, the “apparent KD of MS2 coat protein” value is 15 nM (input ligand: FMN 200 uM), 16 nM under setting [1] and 22.5 nM (input ligand: none).

In the case of “GAGUGCUGAGGAUAUACAUGAGGAUCACCCAUGUGCUUCAGCUAGGAGACUAGCUUUGGUAGAAGGCAGUACUC [Mod of lroppy 23 - Jieux - Exclusion 3] (Eterna round: R97, puzzle: Exclusion 3)”, the “apparent KD of MS2 coat protein” value reads like this: (input ligand: FMN 200 uM) 49.4 nM; (input ligand: none) 14.2 nM.

In the case of “GGCCGUAAUAAGGAUAUCACUAGCGAUAGCUAGUGAGAAGGUAUUACAUGAGGAUCACCCAUGUGAUCAGGCCA [E6/3-B3] (Eterna round: R97, puzzle: Exclusion 6)”, the “apparent KD of MS2 coat protein” value stood at 1180 nM (input ligand: FMN 200 uM) and 176 nM (input ligand: none).

On to “AGUACUAACACGAAAGUGUUAGUUCAAUAAGCUUGUGAAACAUGAGGAUCACCCAUGUCCUCAUAAGCUCGUCUUAU [salish99_TOv2_r3_040] (Eterna round: R96, puzzle: Sensor v3, turn-off variant 2)”, for which the “apparent KD of MS2 coat protein” value came out at 15.2 nM (input ligand: FMN 200 uM), 461 nM under setting [1] and 17.5 nM (input ligand: none).

As to “AGUAACCGGGCUUUUUGCUACAUGAGGAUCACCCAUGUUUAAGCGGAGGGAUUGAUCGUCCUAAAUUCUUUAGUCGG [Eternabot (L2) Solution 8] (Eterna round: R97, puzzle: Sensor, turn-off variant 1)”, the “apparent KD of MS2 coat protein” value came to 16.8 nM (input ligand: FMN 200 uM) and 17.4 nM (input ligand: none).
